Experimental data published in US20230121511A1 (Chugai, published 2023).
Blank lines part the entries; values can stand above or below the binder they belong to.

Tests used:
Human CD3eg linker = molecular target: T1, Human CD3eg linker (human); test: SPR (Biacore 8K), antibody captured on anti-human Fc, recombinant human CD3 as analyte, 25 C, 1:1 model
T1 construct: Single-chain soluble construct expressed in FreeStyle293F cells; used as the SPR analyte; also called recombinant human CD3
T1 chain: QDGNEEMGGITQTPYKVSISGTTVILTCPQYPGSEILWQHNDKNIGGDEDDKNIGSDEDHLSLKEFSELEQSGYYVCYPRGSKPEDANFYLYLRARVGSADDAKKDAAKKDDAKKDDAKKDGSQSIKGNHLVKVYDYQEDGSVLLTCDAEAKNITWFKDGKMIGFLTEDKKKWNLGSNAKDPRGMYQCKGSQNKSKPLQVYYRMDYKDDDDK
Method: Binding affinity of Dual-Fab antibodies (Dual-Ig) to human CD3 were assessed at 25 degrees C. using Biacore 8K instrument (GE Healthcare). Anti-human Fc (GE Healthcare) was immobilized onto all flow cells of a CM4 sensor chip using amine coupling kit (GE Healthcare). Antibodies were captured onto the anti-Fc sensor surfaces, then recombinant human CD3 or CD137 was injected over the flow cell. All antibodies and analytes were prepared in ACES pH 7.4 containing 20 mM ACES, 150 mM NaCl, 0.05% Tween 20, 0.005% NaN₃. Sensor surface was regenerated each cycle with 3M MgCl₂. […] CD137 binding affinity assay was conducted in same condition except assay temperature was set at 37 degrees C.

[1] = molecular target: T2, DualAE05-SG1202k/SG1201hV11 (engineered Cys at position 191 (EU) of CH1, unpaired); test: SPR (Biacore T200, 37 C), tool antibody captured on mouse anti-human Fc, anti-CH1 antibody injected
T2 construct: Heterodimeric antibody with S191C in only one Fab arm, so it exists only in the “unpaired cysteines” form; not shown: light chain constant region
Method: (§1) Biacore binding experiments were performed to characterize binding activities of the anti-CH1 antibodies prepared in Example 3.2 to DualAE05-SG1201, DualAE05-SG1202, DualAE05-SG1202k/SG1201hV11, IgG1_001 and IgG4_001 at 37 degrees C. using Biacore T200 instrument (GE Healthcare). Specifically, mouse anti-human Fc (GE Healthcare) was immobilized onto all flow cells of a CM4 sensor chip using amine coupling kit (GE Healthcare). Tool antibodies DualAE05-SG1201, DualAE05-SG1202, DualAE05-SG1202k/SG1201hV11, IgG1_001 and IgG4_001 were captured onto flow cell, and then anti-CH1 antibodies obtained from Example 3.2 was injected over all the flow cells. All antibodies were prepared in ACES pH 7.4 containing 20 mM ACES, 150 mM NaCl, 0.05% Tween 20, 0.005% NaN₃. Sensor surface was regenerated each cycle with 3M MgCl₂.

IgG1_001 = molecular target: T3, IgG1_001; test: as above
T3 construct: Tool antibody for screening; captured on mouse anti-human Fc; copies: 2 + 2
Method: as §1

IgG4_001 = molecular target: T4, IgG4_001; test: as above
T4 construct: Tool antibody for screening; captured on mouse anti-human Fc; copies: 2 + 2
Method: as §1

DualAE05-SG1201 = molecular target: T5, DualAE05-SG1201; test: as above
T5 construct: Bivalent tool antibody with human IgG1 CH1 without S191C
Method: as §1

DualAE05-SG1202 = molecular target: T6, DualAE05-SG1202 (Heavy chain pos 202 is the engineered Cys (S191C, EU). It can form an inter-Fab disulfide between the two heavy chains, so the preparation is a mixture of the paired and unpaired cysteine forms.); test: as above
T6 construct: Corresponds to DualAE05-SG1201 with S191C in both Fab arms
Method: as §1

T3 sequence (VH, as listed by the source limits assumed, chain 1 of 2): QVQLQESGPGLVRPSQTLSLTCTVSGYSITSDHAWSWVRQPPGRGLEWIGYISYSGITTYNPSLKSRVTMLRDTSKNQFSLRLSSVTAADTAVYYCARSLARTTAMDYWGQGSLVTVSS
T3 sequence (VL, as listed by the source limits assumed, chain 2 of 2): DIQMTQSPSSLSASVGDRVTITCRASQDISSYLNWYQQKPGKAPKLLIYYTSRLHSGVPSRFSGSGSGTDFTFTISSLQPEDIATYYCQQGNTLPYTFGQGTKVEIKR
T4 sequence (VH, as listed by the source limits assumed): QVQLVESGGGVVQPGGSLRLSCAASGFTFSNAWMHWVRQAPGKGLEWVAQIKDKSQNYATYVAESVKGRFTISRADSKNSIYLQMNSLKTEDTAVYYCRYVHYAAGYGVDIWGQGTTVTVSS

Kd (Human CD3eg linker): 156 nM
B1: H1573L0581 (antibody, V domains shown)
VH: QVQLVESGGGLVQPGRSLRLSCAASGFKFSNVWFHWVRQAPGKGLEWVAQIKDYYNAYAAYYAPSVKGRFTISRDDSKNSIYLQMNSLKTEDTAVYYCHYVHYASASTLLPAFGVDAWGQGTTVTVSS
VL: DIVMTQSPLSLPVTPGEPASISCQPSQEVVHMNRNTYLHWYQQKPGQAPRLLIYKVSNRFPGVPDRFSGSGSGTDFTLKISRVEAEDVGVYYCAQGTSHPFTFGQGTKLEIK
notes: Dual-Fab antibody (Dual-Ig) captured via anti-human Fc; also called DualAE07; dBBDu183H1573/dBBDu072L0581

Relative binding activity to tool antibody (normalized against RU binding value for IgG1_001) [1]: 0.957
B2: FAB0060hh (antibody, V domains shown)
VH: QSLEESGGRLVTPGTPLTLTCTASGFSLSTYWMNWVRQAPGKGLEWIGTINIDGSAAYASWAKGRFTISRTSTTVDLKAASPTTEDTATYFCATYGGDIWGPGTLVTVSS
VL: DVVMTQTPASVSEPVGGTVTIKCQASQSISTALAWYQQKPGQPPKLLIYGASTLESGVPSRFKGSGSGTEFTLTISDLECADAATYYCQCTYYGNNYGNAFGGGTKVEIK
notes: Conformation-specific anti-CH1 antibody from immunised rabbits

Relative binding activity to tool antibody (normalized against RU binding value for IgG1_001) (IgG1_001): 1
Relative binding activity to tool antibody (normalized against RU binding value for IgG1_001) (IgG4_001): -0.017
Relative binding activity to tool antibody (normalized against RU binding value for IgG1_001) (DualAE05-SG1201): 1.02
Relative binding activity to tool antibody (normalized against RU binding value for IgG1_001) (DualAE05-SG1202): 0.206
Relative binding activity to tool antibody (normalized against RU binding value for IgG1_001) [1]: 0.922
B3: FAB0133hh (antibody, V domains shown)
VH: QSLEESGGRLVTPGTPLTLTCTASGFSLSTYYMNWVRQAPGKGLEWIGTITIDGTAYYASWAKGRFTISRTSTTVDLKAASPTTEDTATYFCARYDGDIWGPGTLVTVSS
VL: DVVMTQTPASVSEPVGGTVTIKCQASQSISTALAWYQQKPGQPPKLLIHGASILESGVPSRFKGSGSGTEFTLTISDLECADVATYYCQCTYYGISYGNAFGGGTKVEIK
notes: as for B2

Relative binding activity to tool antibody (normalized against RU binding value for IgG1_001) [1]: 0.929
B4: FAB0059ff (antibody, V domains shown)
VH: QSLEESGGRLVTPGTPLTLTCTASGFSLSSYWMNWVRQAPGKGLEWIGTVNIDGSTDYASWAKGRFTISRTSTTVDLKAASPTTEDTATYFCARYGGDIWGPGTLVIVSL
VL: DVVMTQTPASVSEPVGGTVTIKCQASQSISTALAWYQQKPGQPPKLLIYGASTLESGVPSRFKGSGSGTEFTLTISDLECADAATYYCQCTYYGSSYGNAFGGGTKVEIK
notes: as for B2

Relative binding activity to tool antibody (normalized against RU binding value for IgG1_001) [1]: 0.96
B5: FAB0135hh (antibody, V domains shown)
VH: QSLEESGGRLVTPGTPLTLTCTASGFSLSSYYMSWVRQAPGEGLEYIGWISSDGSTYYASWAKGRFTISRTSTTVDLKITSPTTEDTATYFCARDYAASNIWGPGTLVTVSS
VL: DVVMTQTPASVSEPVGGTVTIKCQASENIGNALAWYQQKPGQRPKLLIYGASNLESGVPSRFKGSRSGTEYTLTISDLECDDAATYYCQSTYYSSSYSNPFGGGTKVEIK
notes: as for B2
